# Test results as given in IntAct's records for PubMed 16014621.
# B1: Septum site-determining protein minD homolog, chloroplastic (Arabidopsis thaliana (Mouse-ear cress)), Q9MBA2 (parent)
# chain: MASLRLFSTNHQSLLLPSSLSQKTLISSPRFVNNPSRRSPIRSVLQFNRKPELAGETPRIVVITSGKGGVGKTTTTANVGLSLARYGFSVVAIDADLGLRNLDLLLGLENRVNYTCVEVINGDCRLDQALVRDKRWSNFELLCISKPRSKLPMGFGGKALEWLVDALKTRPEGSPDFIIIDCPAGIDAGFITAITPANEAVLVTTPDITALRDADRVTGLLECDGIRDIKMIVNRVRTDMIKGEDMMSVLDVQEMLGLSLLGVIPEDSEVIRSTNRGFPLVLNKPPTLAGLAFEQAAWRLVEQDSMKAVMVEEEPKKRGFFSFFGG
# partner: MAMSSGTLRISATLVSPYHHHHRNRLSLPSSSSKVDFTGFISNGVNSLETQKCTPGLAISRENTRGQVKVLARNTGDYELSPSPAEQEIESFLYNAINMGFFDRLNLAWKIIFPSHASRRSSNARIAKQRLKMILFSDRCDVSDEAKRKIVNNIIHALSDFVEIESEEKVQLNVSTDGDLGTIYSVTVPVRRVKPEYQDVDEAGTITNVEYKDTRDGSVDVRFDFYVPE
# Variants of: B1
# Details: with mine1_arath MINE1, Q9C4Z7
row,effect of a mutation on the interaction,Variant
1,decreasing interaction,MASLRLFSTNHQSLLLPSSLSQKTLISSPRFVNNPSRRSPIRSVLQFNRKPELAGETPRIVVITSGKGGVGATTTTANVGLSLARYGFSVVAIDADLGLRNLDLLLGLENRVNYTCVEVINGDCRLDQALVRDKRWSNFELLCISKPRSKLPMGFGGKALEWLVDALKTRPEGSPDFIIIDCPAGIDAGFITAITPANEAVLVTTPDITALRDADRVTGLLECDGIRDIKMIVNRVRTDMIKGEDMMSVLDVQEMLGLSLLGVIPEDSEVIRSTNRGFPLVLNKPPTLAGLAFEQAAWRLVEQDSMKAVMVEEEPKKRGFFSFFGG [K72A]
